The results in this text go back to doi:10.1101/2021.10.29.466484, “Clamping of DNA shuts the condensin neck gate” (bioRxiv, 2021).

One test has as its target T1, Smc2 (S. cerevisiae, UniProt P38989 1-1170).
T1 construct: Smc2, SMC subunit of budding yeast (S. cerevisiae) condensin, wild type; Expressed from pGAL10-SMC2 together with the other subunits; Only the head domain and proximal coiled coil are resolved in the maps
T1 sequence: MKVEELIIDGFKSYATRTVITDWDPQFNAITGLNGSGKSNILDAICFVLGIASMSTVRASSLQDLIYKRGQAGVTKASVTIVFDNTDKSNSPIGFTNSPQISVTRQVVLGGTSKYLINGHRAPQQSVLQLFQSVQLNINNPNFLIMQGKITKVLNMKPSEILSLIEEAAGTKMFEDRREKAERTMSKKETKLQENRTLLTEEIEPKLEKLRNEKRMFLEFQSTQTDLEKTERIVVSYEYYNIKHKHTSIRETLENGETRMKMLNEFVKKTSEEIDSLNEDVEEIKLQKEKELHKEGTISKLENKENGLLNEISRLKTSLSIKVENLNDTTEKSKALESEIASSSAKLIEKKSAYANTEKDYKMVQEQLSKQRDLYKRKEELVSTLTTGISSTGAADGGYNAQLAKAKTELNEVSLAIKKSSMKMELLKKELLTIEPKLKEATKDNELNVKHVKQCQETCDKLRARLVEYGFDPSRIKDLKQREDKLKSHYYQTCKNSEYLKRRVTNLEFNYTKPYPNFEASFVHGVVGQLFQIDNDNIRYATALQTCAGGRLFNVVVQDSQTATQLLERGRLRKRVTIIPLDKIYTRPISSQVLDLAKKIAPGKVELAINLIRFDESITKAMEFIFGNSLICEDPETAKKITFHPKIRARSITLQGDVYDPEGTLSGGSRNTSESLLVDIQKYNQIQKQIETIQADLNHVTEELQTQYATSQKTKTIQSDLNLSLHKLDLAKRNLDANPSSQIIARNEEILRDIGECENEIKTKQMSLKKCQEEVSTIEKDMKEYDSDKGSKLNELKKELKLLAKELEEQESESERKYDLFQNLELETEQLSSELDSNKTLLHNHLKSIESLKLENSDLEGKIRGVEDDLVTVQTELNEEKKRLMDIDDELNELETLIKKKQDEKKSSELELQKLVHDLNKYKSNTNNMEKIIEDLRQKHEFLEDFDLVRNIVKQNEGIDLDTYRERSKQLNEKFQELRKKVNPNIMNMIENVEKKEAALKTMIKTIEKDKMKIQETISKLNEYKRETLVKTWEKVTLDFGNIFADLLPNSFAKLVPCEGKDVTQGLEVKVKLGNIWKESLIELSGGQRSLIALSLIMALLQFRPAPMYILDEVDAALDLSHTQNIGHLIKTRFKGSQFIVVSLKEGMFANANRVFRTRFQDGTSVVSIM
As to the kind of experiment: cryo-EM structure; condensin pentamer with relaxed circular DNA, ADP and BeF3; VPP and non-VPP datasets merged; maps at 8.75 and 8.95 Å. The following applies: both partners purified.

For the next test, the target named is T2, Ycs4 (S. cerevisiae, UniProt Q06156 1-1176).
T2 construct: Ycs4, HAWK subunit of budding yeast (S. cerevisiae) condensin, wild type
T2 sequence: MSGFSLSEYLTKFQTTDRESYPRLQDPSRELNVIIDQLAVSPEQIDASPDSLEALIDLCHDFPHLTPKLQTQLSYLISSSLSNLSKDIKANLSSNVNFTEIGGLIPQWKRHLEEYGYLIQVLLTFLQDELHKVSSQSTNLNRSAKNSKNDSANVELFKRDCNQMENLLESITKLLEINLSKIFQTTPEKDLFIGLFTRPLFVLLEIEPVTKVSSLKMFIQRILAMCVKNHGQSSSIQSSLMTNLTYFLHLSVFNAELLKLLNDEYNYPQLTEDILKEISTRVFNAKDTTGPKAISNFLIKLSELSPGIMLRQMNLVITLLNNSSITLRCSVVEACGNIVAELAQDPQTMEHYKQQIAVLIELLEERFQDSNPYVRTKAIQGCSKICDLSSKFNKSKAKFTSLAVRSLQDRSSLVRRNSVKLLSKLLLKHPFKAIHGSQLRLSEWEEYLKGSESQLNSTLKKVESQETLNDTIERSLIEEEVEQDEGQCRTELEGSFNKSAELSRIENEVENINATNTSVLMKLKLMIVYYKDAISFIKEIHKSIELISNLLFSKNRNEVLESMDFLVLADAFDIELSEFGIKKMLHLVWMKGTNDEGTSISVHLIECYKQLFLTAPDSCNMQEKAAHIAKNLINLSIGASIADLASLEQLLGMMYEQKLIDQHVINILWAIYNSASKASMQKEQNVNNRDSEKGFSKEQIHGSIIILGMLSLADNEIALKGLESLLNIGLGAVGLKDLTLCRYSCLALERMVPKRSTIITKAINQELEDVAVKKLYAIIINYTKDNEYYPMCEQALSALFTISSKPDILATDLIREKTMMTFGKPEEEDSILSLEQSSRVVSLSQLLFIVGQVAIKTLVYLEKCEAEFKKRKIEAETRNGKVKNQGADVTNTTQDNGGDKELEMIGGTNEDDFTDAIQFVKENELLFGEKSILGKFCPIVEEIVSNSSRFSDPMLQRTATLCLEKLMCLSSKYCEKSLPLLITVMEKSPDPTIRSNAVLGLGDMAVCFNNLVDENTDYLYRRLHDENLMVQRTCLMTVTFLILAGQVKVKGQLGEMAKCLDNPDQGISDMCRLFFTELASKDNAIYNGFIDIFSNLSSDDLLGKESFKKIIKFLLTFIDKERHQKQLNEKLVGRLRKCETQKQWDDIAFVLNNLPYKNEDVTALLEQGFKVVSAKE
The description is as above. The following applies: both partners purified.

B1: Brn1 (natural protein, S. cerevisiae)
chain: MTTQLRYENNDDDERVEYNLFTNRSTMMANFEEWIKMATDNKINSRNSWNFALIDYFYDLDVLKDGENNINFQKASATLDGCIKIYSSRVDSVTTETGKLLSGLAQRKTNGASNGDDSNGGNGEGLGGDSDEANIEIDPLTGMPISNDPDVNNTRRRVYNRVLETTLVEFETIKMKELDQELIIDPLFKKALVDFDEGGAKSLLLNTLNIDNTARVIFDASIKDTQNVGQGKLQRKEEELIERDSLVDDENEPSQSLISTRNDSTVNDSVISAPSMEDEILSLGMDFIKFDQIAVCEISGSIEQLRNVVEDINQAKDFIENVNNRFDNFLTEEELQAAVPDNAEDDSDGFDMGMQQELCYPDENHDNTSHDEQDDDNVNSTTGSIFEKDLMAYFDENLNRNWRGREHWKVRNFKKANLVNKESDLLEETRTTIGDTTDKNTTDDKSMDTKKKHKQKKVLEIDFFKTDDSFEDKVFASKGRTKIDMPIKNRKNDTHYLLPDDFHFSTDRITRLFIKPGQKMSLFSHRKHTRGDVSSGLFEKSTVSANHSNNDIPTIADEHFWADNYERKEQEEKEKEQSKEVGDVVGGALDNPFEDDMDGVDFNQAFEGTDDNEEASVKLDLQDDEDHKFPIRENKVTYSRVSKKVDVRRLKKNVWRSINNLIQEHDSRKNREQSSNDSETHTEDESTKELKFSDIIQGISKMYSDDTLKDISTSFCFICLLHLANEHGLQITHTENYNDLIVNYEDLATTQAAS
notes: Brn1, kleisin subunit of budding yeast (S. cerevisiae) condensin, wild type; also called kleisin Brn1; BRN1-HA3-His12
As for B1, the binding result with Smc2 and in the test with Ycs4 was “binds” each time.
